14 molecules from patent publication US7888090B2, “Mutants of O6-alkylguanine-DNA alkyltransferase” (Ecole Polytechnique Federale de Lausanne, priority 2004, dated 2011) can be followed below.

First the molecules themselves.
B1: Lys8Thr, Thr127Ala, Ala154Thr, His174Arg: AGT mutant having all mutations of AGTM and additionally those listed (protein, UniProt P16455 1-207, looked up, variant K8T C62A Q115S Q116H K125A R128A G131K G132T M134L R135S C150N S151I S152N A154T N157G S159E H174R del183-207)
Methylated-DNA--protein-cystei …: MDKDCEMTRTTLDSPLGKLELSGCEQGLHEIKLLGKGTSAADAVEVPAPAAVLGGPEPLMQATAWLNAYFHQPEAIEEFPVPALHHPVFQQESFTRQVLWKLLKVVKFGEVISYSHLAALAGNPAAAAAVKTALSGNPVPILIPCHRVVNINGTVGGYEGGLAVKEWLLAHEGRRLGKPGLG
B2: Lys32lle, Leu33Phe, Gly182Val: AGT mutant having all mutations of AGTM and additionally those listed (protein, UniProt P16455 1-207, looked up, variant K32I L33F C62A Q115S Q116H K125A A127T R128A G131K G132T M134L R135S C150N S151I S152N N157G S159E G182V del183-207)
Methylated-DNA--protein-cystei …: MDKDCEMKRTTLDSPLGKLELSGCEQGLHEIIFLGKGTSAADAVEVPAPAAVLGGPEPLMQATAWLNAYFHQPEAIEEFPVPALHHPVFQQESFTRQVLWKLLKVVKFGEVISYSHLAALAGNPAATAAVKTALSGNPVPILIPCHRVVNINGAVGGYEGGLAVKEWLLAHEGHRLGKPGLV
B3: Lys104Glu, Thr127Ala, Ala154Thr: AGT mutant having all mutations of AGTM and additionally those listed (protein, UniProt P16455 1-207, looked up, variant C62A K104E Q115S Q116H K125A R128A G131K G132T M134L R135S C150N S151I S152N A154T N157G S159E del183-207)
Methylated-DNA--protein-cystei …: MDKDCEMKRTTLDSPLGKLELSGCEQGLHEIKLLGKGTSAADAVEVPAPAAVLGGPEPLMQATAWLNAYFHQPEAIEEFPVPALHHPVFQQESFTRQVLWKLLEVVKFGEVISYSHLAALAGNPAAAAAVKTALSGNPVPILIPCHRVVNINGTVGGYEGGLAVKEWLLAHEGHRLGKPGLG
B4: Lys32lle, Leu33Phe, Asn150Gly, lle151Gly, Asn152Asp, Ala154Asp: AGT mutant having all mutations of AGTM and additionally those listed (protein, UniProt P16455 1-207, looked up, variant K32I L33F C62A Q115S Q116H K125A A127T R128A G131K G132T M134L R135S C150G S151G S152D A154D N157G S159E del183-207)
Methylated-DNA--protein-cystei …: MDKDCEMKRTTLDSPLGKLELSGCEQGLHEIIFLGKGTSAADAVEVPAPAAVLGGPEPLMQATAWLNAYFHQPEAIEEFPVPALHHPVFQQESFTRQVLWKLLKVVKFGEVISYSHLAALAGNPAATAAVKTALSGNPVPILIPCHRVVGGDGDVGGYEGGLAVKEWLLAHEGHRLGKPGLG
B5: Lys32lle, Leu33Phe, Ala154Thr: AGT mutant having all mutations of AGTM and additionally those listed (protein, UniProt P16455 1-207, looked up, variant C62A Q115S Q116H K125A A127T R128A G131K G132T M134L R135S C150N S151I S152N N157G S159E del183-207 K32I L33F A154T)
Methylated-DNA--protein-cystei …: MDKDCEMKRTTLDSPLGKLELSGCEQGLHEIIFLGKGTSAADAVEVPAPAAVLGGPEPLMQATAWLNAYFHQPEAIEEFPVPALHHPVFQQESFTRQVLWKLLKVVKFGEVISYSHLAALAGNPAATAAVKTALSGNPVPILIPCHRVVNINGTVGGYEGGLAVKEWLLAHEGHRLGKPGLG
B6: Asn150Val, lle151Ser, Asn152Arg, Gly153Asp, Ala154Asp: AGT mutant having all mutations of AGTM and additionally those listed (protein, UniProt P16455 1-207, looked up, variant C62A Q115S Q116H K125A A127T R128A G131K G132T M134L R135S C150V S152R G153D A154D N157G S159E del183-207)
Methylated-DNA--protein-cystei …: MDKDCEMKRTTLDSPLGKLELSGCEQGLHEIKLLGKGTSAADAVEVPAPAAVLGGPEPLMQATAWLNAYFHQPEAIEEFPVPALHHPVFQQESFTRQVLWKLLKVVKFGEVISYSHLAALAGNPAATAAVKTALSGNPVPILIPCHRVVVSRDDVGGYEGGLAVKEWLLAHEGHRLGKPGLG
B7: Asn150Val, lle151Asn, Asn152Asp, Gly153Leu, Ala154Asp: AGT mutant having all mutations of AGTM and additionally those listed (protein, UniProt P16455 1-207, looked up, variant C62A Q115S Q116H K125A A127T R128A G131K G132T M134L R135S C150V S151N S152D G153L A154D N157G S159E del183-207)
Methylated-DNA--protein-cystei …: MDKDCEMKRTTLDSPLGKLELSGCEQGLHEIKLLGKGTSAADAVEVPAPAAVLGGPEPLMQATAWLNAYFHQPEAIEEFPVPALHHPVFQQESFTRQVLWKLLKVVKFGEVISYSHLAALAGNPAATAAVKTALSGNPVPILIPCHRVVVNDLDVGGYEGGLAVKEWLLAHEGHRLGKPGLG
B8: Asn150Glu, lle151Gly, Asn152Trp, Gly153Asn, Ala154Glu: AGT mutant having all mutations of AGTM and additionally those listed (protein, UniProt P16455 1-207, looked up, variant C62A Q115S Q116H K125A A127T R128A G131K G132T M134L R135S C150E S151G S152W G153N A154E N157G S159E del183-207)
Methylated-DNA--protein-cystei …: MDKDCEMKRTTLDSPLGKLELSGCEQGLHEIKLLGKGTSAADAVEVPAPAAVLGGPEPLMQATAWLNAYFHQPEAIEEFPVPALHHPVFQQESFTRQVLWKLLKVVKFGEVISYSHLAALAGNPAATAAVKTALSGNPVPILIPCHRVVEGWNEVGGYEGGLAVKEWLLAHEGHRLGKPGLG
B9: Asn150Glu, lle151Gly, Asn152Arg, Gly153Glu, Ala154Arg: AGT mutant having all mutations of AGTM and additionally those listed (protein, UniProt P16455 1-207, looked up, variant C62A Q115S Q116H K125A A127T R128A G131K G132T M134L R135S C150E S151G S152R G153E A154R N157G S159E del183-207)
Methylated-DNA--protein-cystei …: MDKDCEMKRTTLDSPLGKLELSGCEQGLHEIKLLGKGTSAADAVEVPAPAAVLGGPEPLMQATAWLNAYFHQPEAIEEFPVPALHHPVFQQESFTRQVLWKLLKVVKFGEVISYSHLAALAGNPAATAAVKTALSGNPVPILIPCHRVVEGRERVGGYEGGLAVKEWLLAHEGHRLGKPGLG
B10: Asn150Glu, lle151Ser, Asn152His, Ala154Lys: AGT mutant having all mutations of AGTM and additionally those listed (protein, UniProt P16455 1-207, looked up, variant C62A Q115S Q116H K125A A127T R128A G131K G132T M134L R135S C150E S152H A154K N157G S159E del183-207)
Methylated-DNA--protein-cystei …: MDKDCEMKRTTLDSPLGKLELSGCEQGLHEIKLLGKGTSAADAVEVPAPAAVLGGPEPLMQATAWLNAYFHQPEAIEEFPVPALHHPVFQQESFTRQVLWKLLKVVKFGEVISYSHLAALAGNPAATAAVKTALSGNPVPILIPCHRVVESHGKVGGYEGGLAVKEWLLAHEGHRLGKPGLG
B11: Ala154Thr: AGT mutant having all mutations of AGTM and additionally those listed (protein, UniProt P16455 1-207, looked up, variant C62A Q115S Q116H K125A A127T R128A G131K G132T M134L R135S C150N S151I S152N A154T N157G S159E del183-207)
Methylated-DNA--protein-cystei …: MDKDCEMKRTTLDSPLGKLELSGCEQGLHEIKLLGKGTSAADAVEVPAPAAVLGGPEPLMQATAWLNAYFHQPEAIEEFPVPALHHPVFQQESFTRQVLWKLLKVVKFGEVISYSHLAALAGNPAATAAVKTALSGNPVPILIPCHRVVNINGTVGGYEGGLAVKEWLLAHEGHRLGKPGLG
B12: Asn150Glu, lle151Gly, Asn152Glu, Ala154Arg: AGT mutant having all mutations of AGTM and additionally those listed (protein, UniProt P16455 1-207, looked up, variant C62A Q115S Q116H K125A A127T R128A G131K G132T M134L R135S C150E S151G S152E A154R N157G S159E del183-207)
Methylated-DNA--protein-cystei …: MDKDCEMKRTTLDSPLGKLELSGCEQGLHEIKLLGKGTSAADAVEVPAPAAVLGGPEPLMQATAWLNAYFHQPEAIEEFPVPALHHPVFQQESFTRQVLWKLLKVVKFGEVISYSHLAALAGNPAATAAVKTALSGNPVPILIPCHRVVEGEGRVGGYEGGLAVKEWLLAHEGHRLGKPGLG
B13: truncated PGEG-hAGT: PGEG-hAGT (Asn157Gly, Ser159Glu) truncated after codon 182 (protein, UniProt P16455 1-207, looked up, variant N157G S159E del183-207)
Methylated-DNA--protein-cystei …: MDKDCEMKRTTLDSPLGKLELSGCEQGLHEIKLLGKGTSAADAVEVPAPAAVLGGPEPLMQCTAWLNAYFHQPEAIEEFPVPALHHPVFQQESFTRQVLWKLLKVVKFGEVISYQQLAALAGNPKAARAVGGAMRGNPVPILIPCHRVVCSSGAVGGYEGGLAVKEWLLAHEGHRLGKPGLG
B14: Cys62Ala, Lys125Ala, Ala127Thr, Arg128Ala, Asn157Gly, Ser159Glu: hAGT mutant with the listed mutations (protein, UniProt P16455 1-207, looked up, variant C62A K125A A127T R128A N157G S159E)
Methylated-DNA--protein-cystei …: MDKDCEMKRTTLDSPLGKLELSGCEQGLHEIKLLGKGTSAADAVEVPAPAAVLGGPEPLMQATAWLNAYFHQPEAIEEFPVPALHHPVFQQESFTRQVLWKLLKVVKFGEVISYQQLAALAGNPAATAAVGGAMRGNPVPILIPCHRVVCSSGAVGGYEGGLAVKEWLLAHEGHRLGKPGLGGSSGLAGAWLKGAGATSGSPPAGRN

The nature of one test: BG-Cy3 activity assay (reaction rate of AGT mutants). It is filed as biochemical. Conditions: divided by value for wild type hAGT; periplasmic extracts (x.). Here is the method:
Reactivity against DNA-based substrates measured with a BG-Cy3 assay: BG-Cy3 is prepared by reacting the previously described O^6-(4-aminomethyl-benzyl)guanine (Keppler et al., NatureBiotechnol. 21:86-89, 2003) with the commercially available N-hydroxysuccinimide ester of Cy3, (Cy3-NHS, Amersham). The coupling reaction is performed at ambient temperature in N,N-dimethylformamide in the presence of 1 eq. of triethylamine. The BG-Cy3 conjugate is purified by reversed-phase HPLC on a C18-column by using linear gradients from 0.1% trifluoroacetic acid to acetonitrile. After solvent evaporation BG-Cy3 is dissolved in dimethyl sulfoxide and stored at −20° C. For measuring the reactivity with DNA-based substrates, a reaction mixture containing different concentrations (0 to 5 µM) of oligonucleotide SEQ ID NO:2 (modified in position 14), GST-AGT fusion protein at 0.2 µM and BG-Cy3 at […] in reaction buffer (50 mM HEPES, pH 7.2, 1 mM DTT, 200 mg/ml BSA) is incubated in microtiterplates. Fluorescence of the Cy3 derivative (excitation 519 nm, emission at 572 nm) is measured on a Spectramax Gemini plate reader (Molecular Devices).
The amplified products are cloned in fusion to the g3 gene of filamentous phage in the vector pAK100 via SfiI restriction sites. The resulting gene libraries are used for phage display as described under Example 4. The mutants of the libraries are selected with 5 to 50 nM of BG-Bt for 10 min. Selected mutants are subcloned into pGEX using the primers SEQ ID NO:3 and SEQ ID NO:13. The reaction rate of mutant AGTs is determined as described in Example 6, Reactivity against DNA-based substrates (BG-Cy3 assay).
For the activity assay purified GST fusion proteins were used for mutants marked with “p.” (prepared as described under Example 1); periplasmic extracts were used for mutants marked with “x.” (prepared as described under Example 2).
The molecule B1 displayed a Relative reaction rate of 15.66.
On the same count and under the same terms, for B2 the value was 9.48; for B3, 12.34.

Staying with this test, now noted: divided by value for wild type hAGT; purified GST fusion proteins (p.).
Take B4: the Relative reaction rate is reported as 45.45.
Same read-out and setting: next, B5: 33.89.
Same read-out and setting: for B6 the value was 21.26; for B7, 15.67.
On the same count and under the same terms, for B8 the value was 11.97.
As to B9, the Relative reaction rate is on record as 11.20.
Regarding B10, the Relative reaction rate is given as 15.43.
On the same count and under the same terms, for B11 the value was 14.90; for B12, 18.42.

A short description of another test: Activity assay with biotinylated O^6-benzylguanine (BG-Bt), Western blotting. In kind it is biochemical. Conditions: statement in words. Here is the method:
Activity towards O^6-benzylguanine substrates is measured as described by Juillerat et al., Chem Biol 10:313-317, 2003.
Activity assay: Purified mutated GST-AGT is incubated in vitro with a biotinylated O^6-benzylguanine (BG-Bt, substance 3a of Juillerat et al., Chem Biol 10:313-317, 2003). In a total reaction volume of 80 […]I, 0.2 µM GST-AGT are incubated with 1 µM substrate in 50 mM HEPES pH 7.2 and 1 mM DTT at room temperature. At several points of time an aliquot is quenched with 1 mM O^6-benzylguanine (Sigma) in SDS-Laemmli buffer and subjected to Western blotting analysis (neutravidin-peroxidase conjugate (PIERCE), Renaissance reagent plus (NEN)). The intensity of the corresponding bands is quantified by a Kodak Image Station 440.
(In general: A western blot detects proteins with antibodies after separation by electrophoresis.)
As to B13, the “activity towards O^6-benzylguanine substrates” value is “retains activity”.
Still for that read-out and setting: next, B14: “retains activity”.
